Laboratory results from patent publication US20200283478A1 (Genentech, published 2020).
Read-outs that look alike come from different tables or passages of the source. Values belong to the binder of their own block, whether it stands above or below them. Bridge positions count the residues as written; N and C are the ends. Square brackets hold non-standard residues; d marks the D form. Ends that are not written are not given here. * marks the point of attachment. 5FAM = O=C1OC2(c3ccc(O)cc3Oc3cc(O)ccc32)c2ccc(C(=O)*)cc21; Ach = 2-aminocyclohexane-1-carboxylic acid; Dap = NC[C@H](N)C(=O)O

Experiments:
[1] = target: T1, PCSK9Δhelix (human, UniProt Q8NBP7 31-152; Q8NBP7 168-692); experiment: SPR, Method 3 (SensiQ Pioneer FE, target amine-coupled, gradient injection)
T1 construct: Made by TEV cleavage of human PCSK9 M1-Q692 with an engineered TEV site; The new N-terminus of the catalytic domain is S-A168; also called His-PCSK9Δhelix; PCSK9 lacking the P' helix
T1 sequence (Q8NBP7 31-152, stated change not applied, chain 1 of 2): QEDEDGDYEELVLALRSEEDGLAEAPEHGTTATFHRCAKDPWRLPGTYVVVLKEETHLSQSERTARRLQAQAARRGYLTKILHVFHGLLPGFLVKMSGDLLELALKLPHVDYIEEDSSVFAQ
T1 sequence (Q8NBP7 other isoform, or with tags, fused parts or gaps mutant, chain 2 of 2): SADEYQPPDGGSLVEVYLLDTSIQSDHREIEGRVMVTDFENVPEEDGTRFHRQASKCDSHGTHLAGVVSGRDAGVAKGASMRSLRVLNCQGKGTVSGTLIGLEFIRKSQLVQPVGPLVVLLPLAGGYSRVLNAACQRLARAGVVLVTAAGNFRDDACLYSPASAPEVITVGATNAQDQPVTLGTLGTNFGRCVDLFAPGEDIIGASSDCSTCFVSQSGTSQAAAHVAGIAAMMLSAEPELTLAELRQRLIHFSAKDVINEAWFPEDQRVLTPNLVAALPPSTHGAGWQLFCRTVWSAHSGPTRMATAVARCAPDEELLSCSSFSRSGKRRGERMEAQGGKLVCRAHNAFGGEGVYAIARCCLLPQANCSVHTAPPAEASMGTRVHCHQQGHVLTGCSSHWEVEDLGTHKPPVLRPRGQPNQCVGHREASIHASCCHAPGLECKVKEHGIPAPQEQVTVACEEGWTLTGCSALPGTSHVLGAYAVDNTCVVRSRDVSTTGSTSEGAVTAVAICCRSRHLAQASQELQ

[2] = target: T2, PCSK9 (proprotein convertase subtilisin/kexin type 9), His-tagged, full-length (human, UniProt Q8NBP7 31-692); experiment: as above
T2 construct: Captured by the His tag (SPR Methods 1 and 2), amine-coupled (Method 3), or His-tagged in TR-FRET; also called His-PCSK9
T2 sequence (Q8NBP7 31-692 limits assumed): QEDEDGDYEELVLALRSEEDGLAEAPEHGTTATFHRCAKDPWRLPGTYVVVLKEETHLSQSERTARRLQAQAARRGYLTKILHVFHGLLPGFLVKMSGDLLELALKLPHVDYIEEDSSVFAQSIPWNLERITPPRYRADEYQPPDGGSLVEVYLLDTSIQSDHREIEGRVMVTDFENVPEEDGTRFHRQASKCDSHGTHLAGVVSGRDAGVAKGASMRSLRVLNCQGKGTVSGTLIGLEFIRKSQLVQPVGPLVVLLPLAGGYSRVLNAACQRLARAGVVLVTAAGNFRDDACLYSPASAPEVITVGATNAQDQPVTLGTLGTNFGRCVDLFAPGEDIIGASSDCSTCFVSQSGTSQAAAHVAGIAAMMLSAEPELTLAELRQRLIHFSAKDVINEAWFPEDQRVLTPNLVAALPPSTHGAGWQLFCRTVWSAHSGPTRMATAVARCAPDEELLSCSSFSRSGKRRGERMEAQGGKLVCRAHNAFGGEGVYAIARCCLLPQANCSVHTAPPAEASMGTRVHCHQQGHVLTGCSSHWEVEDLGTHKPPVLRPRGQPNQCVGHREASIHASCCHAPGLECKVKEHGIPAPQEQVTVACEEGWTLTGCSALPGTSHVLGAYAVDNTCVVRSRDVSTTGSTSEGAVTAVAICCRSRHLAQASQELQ

[3] = target: T2, PCSK9 (proprotein convertase …); experiment: TR-FRET competition; competitor EGF(A)-Fc binding to His-PCSK9
[4] = target: T1, PCSK9Δhelix; experiment: TR-FRET competition; competitor Ab20 binding to His-PCSK9Δhelix
[5] = target: T3, PCSK9Δhelix (human, Chemically biotinylated in the phage ELISAs; the site is not given.); experiment: phage spot ELISA
T3 construct: construct M1-Q692 with engineered TEV site, cleaved by TEV; also called His-PCSK9Δhelix; open groove PCSK9Δhelix
T3 sequence (prodomain, as listed by the source mutant limits assumed, chain 1 of 2): as the sequence (Q8NBP7 31-152, stated change not applied, chain 1 of 2) above
T3 sequence (chain, as listed by the source mutant limits assumed, chain 2 of 2): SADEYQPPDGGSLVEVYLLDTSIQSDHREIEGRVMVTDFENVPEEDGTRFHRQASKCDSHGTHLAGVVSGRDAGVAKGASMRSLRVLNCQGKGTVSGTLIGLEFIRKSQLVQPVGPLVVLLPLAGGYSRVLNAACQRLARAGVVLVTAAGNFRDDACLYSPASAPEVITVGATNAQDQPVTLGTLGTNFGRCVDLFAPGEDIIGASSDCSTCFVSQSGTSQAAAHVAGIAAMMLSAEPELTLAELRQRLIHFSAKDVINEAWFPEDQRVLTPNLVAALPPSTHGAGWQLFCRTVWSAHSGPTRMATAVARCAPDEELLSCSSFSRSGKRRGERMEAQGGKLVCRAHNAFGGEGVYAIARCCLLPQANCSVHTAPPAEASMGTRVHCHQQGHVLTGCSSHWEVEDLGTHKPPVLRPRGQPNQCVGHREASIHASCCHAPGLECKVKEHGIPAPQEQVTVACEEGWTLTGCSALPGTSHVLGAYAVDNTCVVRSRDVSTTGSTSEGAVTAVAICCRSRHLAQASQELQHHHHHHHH

[6] = target: T4, proprotein convertase subtilisin/kexin type 9 (PCSK9) (human, UniProt Q8NBP7 31-692); experiment: phage spot ELISA
T4 construct: His-tagged full-length PCSK9 in TR-FRET and SPR, biotinylated in phage ELISA; secreted protein is autoprocessed (prodomain plus catalytic/CRD chain starting at S153); also called rec.PCSK9; His-PCSK9
T4 sequence (Q8NBP7 other isoform, or with tags, fused parts or gaps limits assumed): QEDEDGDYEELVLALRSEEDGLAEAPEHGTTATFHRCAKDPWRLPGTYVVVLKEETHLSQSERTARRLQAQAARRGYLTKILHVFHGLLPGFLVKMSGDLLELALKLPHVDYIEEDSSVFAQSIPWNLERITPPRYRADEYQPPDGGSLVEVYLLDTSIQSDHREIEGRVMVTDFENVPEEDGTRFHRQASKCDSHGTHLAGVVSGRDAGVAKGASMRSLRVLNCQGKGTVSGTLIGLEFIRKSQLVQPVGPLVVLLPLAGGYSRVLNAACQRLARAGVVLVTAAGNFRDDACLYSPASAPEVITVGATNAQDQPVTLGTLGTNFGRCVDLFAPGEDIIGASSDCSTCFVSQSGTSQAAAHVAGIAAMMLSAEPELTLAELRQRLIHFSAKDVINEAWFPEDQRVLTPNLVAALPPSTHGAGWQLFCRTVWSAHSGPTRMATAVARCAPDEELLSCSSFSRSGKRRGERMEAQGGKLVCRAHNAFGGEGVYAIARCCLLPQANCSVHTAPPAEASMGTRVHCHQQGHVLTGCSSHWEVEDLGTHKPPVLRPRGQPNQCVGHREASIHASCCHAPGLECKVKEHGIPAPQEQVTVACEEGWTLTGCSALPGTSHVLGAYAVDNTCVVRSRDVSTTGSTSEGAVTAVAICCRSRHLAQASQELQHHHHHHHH

[7] = target: T2, PCSK9 (proprotein convertase …); experiment: TR-FRET competition; competitor EGF(A)-Fc binding to His-PCSK9; remark: listed apart in the source
[8] = target: T1, PCSK9Δhelix; experiment: TR-FRET competition; competitor Ab20 binding to His-PCSK9Δhelix; remark: listed apart in the source
[9] = target: T5, PCSK9Δhelix (human PCSK9 lacking the P' helix, His-tagged) (human, UniProt Q8NBP7 31-152; Q8NBP7 168-692); experiment: TR-FRET competition; His-PCSK9Δhelix with Ab20 as competitor ligand
T5 construct: Construct M1-Q692 with an engineered TEV site (Y166 and R167 deleted, ENLYFQS inserted between R165 and A168); also called His-PCSK9Δhelix; C-terminal (His)8-tagged PCSK9Δhelix
T5 sequence (Q8NBP7 31-152, stated change not applied, chain 1 of 2): as the sequence (Q8NBP7 31-152, stated change not applied, chain 1 of 2) above
T5 sequence (Q8NBP7 other isoform, or with tags, fused parts or gaps mutant, chain 2 of 2): as the sequence (chain, as listed by the source mutant limits assumed, chain 2 of 2) above

[10] = target: T5, PCSK9Δhelix (human PCSK9 lacking the P' …); experiment: SPR (Biacore), His-tagged PCSK9Δhelix captured on NTA chip
[11] = target: T2, PCSK9 (proprotein convertase …); experiment: TR-FRET competition; competitor EGF(A)-Fc binding to His-PCSK9; remark: listed apart in the source
[12] = target: T1, PCSK9Δhelix; experiment: TR-FRET competition; competitor Ab20 binding to His-PCSK9Δhelix; remark: listed apart in the source

- Kd [1]: 6400 nM
- Kd [2]: 118 µM
Binder: Ac-CRL[Ach]WNLQRIGLPC-NH2 (disulfide 1-14 (inferred), Two Cys, disulfide-cyclized) [Compound 82]

- ELISA [5]: 1.94
- s/n ratio [5]: 12.3
- ELISA [6]: 1.42
- s/n ratio [6]: 9.77
Binder: SGGACPWNLERIGLSC [SEQ ID NO 384]

- ELISA [5]: 3.07
- s/n ratio [5]: 8.48
- ELISA [6]: 3
- s/n ratio [6]: 8.11
Binder: SGCFIPWNLQRIGLLC (not fully specified (C-terminus, bridges); cysteine pairing not given here) [SEQ ID NO 383]

- ELISA [5]: 2.09
- s/n ratio [5]: 18.2
- ELISA [6]: 1.25
- s/n ratio [6]: 9.44
Binder: SGACVKPCIAGNIIR [SEQ ID NO 388]

- ELISA [5]: 2.88
- s/n ratio [5]: 20.7
- ELISA [6]: 2.62
- s/n ratio [6]: 17.5
Binder: SGRCLNHLISGNMNSC [SEQ ID NO 387]

- Kd [1]: 2800 nM
- Kd [2]: 96.5 µM
- IC50 [7]: > 50 µM
- IC50 [8]: 9.7 µM
Binder: Ac-DLMPWNLVRIGLAR-NH2 [Compound 55]

- Kd [1]: 89200 nM
- Kd [2]: 522 µM
B1: Compound 97 (peptide)
peptide: Ac-GSGCWNL[Dap]RIGSQGC-NH2
modifications: disulfide 4-15
SMILES: CC[C@H](C)[C@@H]1NC(=O)[C@H](CCCNC(=N)N)NC(=O)[C@H](CN)NC(=O)[C@H](CC(C)C)NC(=O)[C@H](CC(N)=O)NC(=O)[C@H](Cc2c[nH]c3ccccc23)NC(=O)[C@@H](NC(=O)CNC(=O)[C@H](CO)NC(=O)CNC(C)=O)CSSC[C@@H](C(N)=O)NC(=O)CNC(=O)[C@H](CCC(N)=O)NC(=O)[C@H](CO)NC(=O)CNC1=O
notes: Two Cys, disulfide-cyclized; also called Ac-GSG-CWNL(Dpr)RIGSQGC-NH2

- Kd [1]: 2500 nM
- Kd [2]: 46.4 µM
Binder: Ac-FCLWNLKRIGAQCWF-NH2 (disulfide 2-13 (inferred), Two Cys, disulfide-cyclized) [Compound 96]

- ELISA [5]: 3.19
- s/n ratio [5]: 21.3
- ELISA [6]: 2.74
- s/n ratio [6]: 15.8
Binder: SGGSMPWNLERIFALH [SEQ ID NO 390]

- ELISA [5]: 2.21
- s/n ratio [5]: 15.1
- ELISA [6]: 0.514
- s/n ratio [6]: 3.59
Binder: SGCSDLWNLARIYPMC [SEQ ID NO 391]

- ELISA [5]: 3.23
- s/n ratio [5]: 14.7
- ELISA [6]: 3.16
- s/n ratio [6]: 16.5
Binder: SGDLMPWNLVRIGLLR [SEQ ID NO 389]

- Kd [1]: 167 nM
- Kd [2]: 11 µM
Binder: Ac-CRLPWNLARIGLPC-NH2 (disulfide 1-14 (inferred), Two Cys, disulfide-cyclized) [Compound 73]

Second part, the binder before the results:

Binder: 5FAM-SGSGCFIPWNLQRIGLLC-NH2 (disulfide 5-18 (inferred), Two Cys, disulfide-cyclized) [Compound 33]
- Kd [1]: 10000 nM
- Kd [2]: 6.01 µM

Binder: Ac-TVFTSWEEYLDWVGSGKLWN-NH2 [Compound 7]
- IC50 [3]: 500 nM
- IC50 [4]: 18600 nM

Binder: Ac-LMPWNLVRIGLLR-NH2 [Compound 50]
- Kd [1]: 1600 nM
- Kd [2]: 16.1 µM
- IC50 [7]: > 50 µM
- IC50 [8]: 2.66 µM

Binder: Ac-TVFTSWEEYLDWVGSGKLWNLG-NH2 [Compound 5]
- IC50 [3]: 720 nM
- IC50 [4]: 11100 nM

Binder: Ac-WNLVRIGLLR-NH2 [Compound 53]
- Kd [1]: 33800 nM
- Kd [2]: 223 µM
- IC50 [7]: > 50 µM
- IC50 [8]: 33.1 µM

Binder: Ac-DLMPWNLVRIGLLR-NH2 [Compound 35: Ac-DLMPWNLVRIGLLR-NH2]
- IC50 [9]: 7.9 µM
- Kd [10]: 1380 nM

Binder: 5FAM-SGSGCRLPWNLQRIGLPC-NH2 (disulfide 5-18 (inferred), Two Cys, disulfide-cyclized) [Compound 34]
- Kd [1]: 5280 nM
- Kd [2]: 4.47 µM

Binder: Ac-ALMPWNLVRIGLLR-NH2 [Compound 45]
- Kd [1]: 8200 nM
- Kd [2]: 117 µM
- IC50 [7]: > 50 µM
- IC50 [8]: 2.02 µM

Binder: Ac-TVFTSWEEYLDWVGSGKLWNLGR-NH2 [Compound 4]
- IC50 [3]: 490 nM
- IC50 [4]: 1520 nM

Binder: Ac-TVFTSWEEYLDWVGSGKLWNL-NH2 [Compound 6]
- IC50 [3]: 740 nM
- IC50 [4]: 10000 nM

Binder: Ac-PWNLVRIGLLR-NH2 [Compound 52]
- Kd [1]: 2600 nM
- Kd [2]: 17.9 µM
- IC50 [7]: > 50 µM
- IC50 [8]: 10.2 µM

Binder: Ac-TVFTSWEEYLDWVGSGCWNLGRIGSQGC-NH2 (disulfide 17-28 (inferred), Two Cys, disulfide-cyclized) [Compound 11]
- IC50 [11]: 340 nM

Binder: Ac-TVFTSWEEYLDWVGSGCWNLKRVGSQGC-NH2 (disulfide 17-28 (inferred), Two Cys, disulfide-cyclized) [Compound 12]
- IC50 [11]: 190 nM

Binder: Ac-MPWNLVRIGLLR-NH2 [Compound 51]
- Kd [1]: 2700 nM
- Kd [2]: 26.2 µM
- IC50 [7]: > 50 µM
- IC50 [8]: 4.69 µM

Binder: Ac-TVFTSWEEYLDWVGGSGKLWNLGRV-NH2 [Compound 8]
- IC50 [3]: 1030 nM
- IC50 [4]: 49 nM

Binder: Ac-TVFTSWEEYLDWVGSGGKLWNLGRV-NH2 [Compound 9]
- IC50 [3]: 390 nM
- IC50 [4]: 65 nM

Binder: Ac-TVFTSWEEYLDWVGSGKLWNLGRV-NH2 [Compound 1]
- IC50 [3]: 388 nM
- IC50 [4]: 21 nM

Binder: Ac-CFIPWNLQRIGLLC-NH2 (disulfide 1-14 (inferred), Two Cys, disulfide-cyclized) [Compound 31]
- Kd [1]: 3010 nM
- Kd [2]: 5.83 µM

Binder: Ac-TVFTSWEEYLDWVGGSGCWNLKRIGSQGC-NH2 (disulfide 18-29 (inferred), Two Cys, disulfide-cyclized) [Compound 13]
- IC50 [11]: 10 nM
- IC50 [12]: 1 nM

Binder: Ac-TVFTSWEEYLDWVGSGGCWNLKRIGSQGC-NH2 (disulfide 18-29 (inferred), Two Cys, disulfide-cyclized) [Compound 14]
- IC50 [11]: 9 nM
- IC50 [12]: 1 nM

Binder: Ac-TVFTSWEEYLDWVGSGGCRLPWNLQRIGLPC-NH2 (disulfide 18-31 (inferred), Two Cys, disulfide-cyclized) [Compound 25]
- IC50 [11]: 781 nM
- IC50 [12]: 83 nM

Binder: Ac-TVFTSWEEYLDWVGSGGCFLPWNLQRIGLLC-NH2 (disulfide 18-31 (inferred), Two Cys, disulfide-cyclized) [Compound 38]
- IC50 [11]: 471 nM
- IC50 [12]: 3 nM

Binder: Ac-CRLPWNLQRIGLPC-NH2 (disulfide 1-14 (inferred), Two Cys, disulfide-cyclized) [Compound 32]
- Kd [1]: 210 nM
- Kd [2]: 1.3 µM
